Consider one protein from US20100305034A1 (UNIVERSITY OF BRISTOL, published 2010).

This data set deals with the molecule itself. Briefly: Western blot of conditioned media from transfected HEK293 cells. As for the experimental part:
Full length VEGF₁₆₅b or VEGF₁₆₅ (generated by PCR from tissue) was cloned into the expression vector pcDNA₃ using standard methodology, and then transfected into HEK 293 cells and a stable cell line generated using Geneticin selection. Confluent cells were incubated in basal M200 endothelial cell medium for 48 hours, containing neither serum nor Geneticin, and the conditioned media assayed for VEGF concentration using a pan VEGF ELISA(R&D). Control conditioned media (pcDNA3-CM) was collected in the same way from HEK293 cells stably transfected with pcDNA₃. […] VEGF₁₆₅b was the same molecular weight as VEGF₁₆₅, and both isoforms correspond to previously published molecular weights for VEGF₁₆₅ (Ferrara N et al Biophys. Res. Comm. 1989; 161: 851-8). […] This is probably due to the fact that commercially available VEGF₁₆₅ is not glycosylated. There was some VEGF₁₆₅b and VEGF₁₆₅ in the conditioned media that appeared to be de-glycosylated, but this was a small fraction of the total VEGF.
(In western blotting, separated proteins are transferred to a membrane and probed.)

B1: VEGF165b (recombinant, produced by transfected HEK293 cells) (ligand)
chain: APMAEGGGQNHHEVVKFMDVYQRSYCHPIETLVDIFQEYPDEIEYIFKPSCVPLMRCGGCCNDEGLECVPTEESNITMQIMRIKPHQGQHIGEMSFLQHNKCECRPKKDRARQENPCGPCSERRKHLFVQDPQTCKCSCKNTDSRCKARQLELNERTCRSLTRKD
notes: Secreted into conditioned medium of HEK293 cells stably transfected with pcDNA3-VEGF165b; mostly glycosylated (about 23 kDa); also called VEGF165b-CM; new isoform VEGF165b
Regarding B1, the binding result is recorded as “binds”.
